Reference: the Immune Epitope Database (IEDB)

Key:
HLA-A*24:02 = experiment: IEDB peptide-MHC binding, purified MHC/competitive/radioactivity; filed as Kd, often an IC50 or EC50 that approximates it; ≥ and ≤ were set here for values at or beyond the usual limits of such assays
HLA-A*23:01 = experiment: as above
HLA-A*26:01 = experiment: as above
HLA-A*01:01 = experiment: as above
HLA-A*29:02 = experiment: as above
HLA-A*30:02 = experiment: as above
HLA-A*02:01 [1] = experiment: IEDB peptide-MHC binding, purified MHC/direct/fluorescence; filed as Kd, often an IC50 or EC50 that approximates it; ≥ and ≤ were set here for values at or beyond the usual limits of such assays; settings: source organism: Salmonella enterica subsp. enterica serovar Typhimurium
HLA-A*69:01 = experiment: as above; settings: source organism: Salmonella enterica subsp. enterica serovar Typhimurium
HLA-A*02:01 [2] = experiment: IEDB peptide-MHC binding, purified MHC/competitive/fluorescence; ≥ and ≤ were set here for values at or beyond the usual limits of such assays
HLA-A*02:01 [3] = experiment: IEDB peptide-MHC binding, purified MHC/competitive/fluorescence; filed as Kd, often an IC50 or EC50 that approximates it; ≥ and ≤ were set here for values at or beyond the usual limits of such assays
[4] = source organism: Dengue virus 2 Jamaica/1409/1983
[5] = source organism: SARS coronavirus Tor2
[6] = source organism: Dengue virus 4 Philippines/H241/1956
[7] = source organism: Vaccinia virus Copenhagen
[8] = source organism: Dengue virus 3 Sri Lanka/1266/2000
[9] = source organism: Zaire ebolavirus
[10] = source organism: Mammarenavirus guanaritoense
[11] = source organism: Dengue virus 4 Dominica/814669/1981
[12] = source organism: Mammarenavirus whitewaterense
[13] = source organism: Mammarenavirus lassaense
[14] = source organism: Mammarenavirus brazilense
[15] = source organism: Mammarenavirus machupoense
[16] = source organism: Mammarenavirus juninense

SYLAGAGLL
Kd (HLA-A*24:02; [4]): 19.4 nM

CWCNSTSTW
Kd (HLA-A*24:02; [4]): 1250 nM
Kd (HLA-A*23:01; [4]): 998 nM

VFYLYLTFYF
Kd (HLA-A*24:02; [5]): 0.0798 nM
Kd (HLA-A*26:01; [5]): 621 nM
Kd (HLA-A*01:01; [5]): 566 nM
Kd (HLA-A*29:02; [5]): 0.0415 nM
Kd (HLA-A*23:01; [5]): 0.0611 nM
Kd (HLA-A*30:02; [5]): 12400 nM

ALSMADIFI
Kd (HLA-A*02:01 [1]): 106 nM
Kd (HLA-A*69:01): 1080 nM

ENPYKTWAYH
Kd (HLA-A*26:01; source organism: Dengue virus 3 Martinique/1243/1999): ≥ 34100 nM

GYTMHANYI
Kd (HLA-A*24:02; [5]): 13500 nM
Kd (HLA-A*26:01; [5]): ≥ 77900 nM
Kd (HLA-A*01:01; [5]): ≥ 78100 nM
Kd (HLA-A*29:02; [5]): ≥ 88200 nM
Kd (HLA-A*23:01; [5]): 6960 nM
Kd (HLA-A*30:02; [5]): ≥ 78900 nM

LSSTRVPNY
Kd (HLA-A*01:01; [6]): 2040 nM
Kd (HLA-A*30:02; [6]): 194 nM

SISKSNAKC
IC50 (HLA-A*02:01 [2]; [7]): 35800 nM

VSLTCSNTIF
Kd (HLA-A*01:01; [8]): 7760 nM

ALAPAPAEV
IC50 (HLA-A*02:01 [2]; source organism: Homo sapiens): 52 nM

EDLIEWAME
IC50 (HLA-A*02:01 [2]; source organism: Vaccinia virus): ≥ 94700 nM

LEELLPAVS
IC50 (HLA-A*02:01 [2]; [9]): ≥ 141000 nM

GYATQTVGPW
Kd (HLA-A*24:02; [6]): 1290 nM
Kd (HLA-A*23:01; [6]): 549 nM

MYEMHRESLL
Kd (HLA-A*24:02; [10]): 3170 nM
Kd (HLA-A*29:02; [10]): 9880 nM
Kd (HLA-A*23:01; [10]): 870 nM

TIGEWAFWE
IC50 (HLA-A*02:01 [2]; [9]): ≥ 245000 nM

ESQMLIPKSY
Kd (HLA-A*01:01; [11]): 8370 nM
Kd (HLA-A*30:02; [11]): 1210 nM

VFQAKSAFV
Kd (HLA-A*24:02; [10]): 1060 nM
Kd (HLA-A*26:01; [10]): ≥ 77900 nM
Kd (HLA-A*01:01; [10]): ≥ 31400 nM
Kd (HLA-A*29:02; [10]): ≥ 78900 nM
Kd (HLA-A*23:01; [10]): 855 nM
Kd (HLA-A*30:02; [10]): 1050 nM

AWLVHRQWFL
Kd (HLA-A*23:01; [4]): 97.7 nM

SFYSDPKRFF
Kd (HLA-A*24:02; [10]): 740 nM
Kd (HLA-A*29:02; [10]): 124 nM
Kd (HLA-A*23:01; [10]): 226 nM

FLHEDLEKL
Kd (HLA-A*02:01 [3]; source organism: unidentified): 10 nM

SVMATEEPT
IC50 (HLA-A*02:01 [2]; source organism: Sudan ebolavirus): ≥ 115000 nM

QVFLKMRRIF
Kd (HLA-A*24:02; [12]): 12300 nM
Kd (HLA-A*29:02; [12]): 9080 nM
Kd (HLA-A*23:01; [12]): 401 nM

HHQDTGEES
IC50 (HLA-A*02:01 [2]; [9]): ≥ 223000 nM

KLAGGVAVL
IC50 (HLA-A*02:01 [2]; source organism: Porphyromonas gingivalis): 120 nM

EQYQQLREA
IC50 (HLA-A*02:01 [2]; [9]): ≥ 221000 nM

VSQHNYRPGY
Kd (HLA-A*01:01; [4]): 6790 nM
Kd (HLA-A*30:02; [4]): 385 nM

AGFAAGLTY
Kd (HLA-A*24:02; [13]): ≥ 77500 nM
Kd (HLA-A*26:01; [13]): ≥ 61800 nM
Kd (HLA-A*01:01; [13]): ≥ 38500 nM
Kd (HLA-A*29:02; [13]): 6130 nM
Kd (HLA-A*23:01; [13]): ≥ 39200 nM
Kd (HLA-A*30:02; [13]): 178 nM

DNPYKTWAY
Kd (HLA-A*26:01; source organism: Dengue virus 1 Brazil/97-11/1997): 6390 nM

DVIPMVTQM
Kd (HLA-A*26:01; source organism: Dengue virus 2 Peru/IQT2913/1996): 64.2 nM

YFTNDVSFL
Kd (HLA-A*24:02; [5]): ≥ 78100 nM
Kd (HLA-A*26:01; [5]): 16100 nM
Kd (HLA-A*01:01; [5]): 12900 nM
Kd (HLA-A*29:02; [5]): ≥ 75000 nM
Kd (HLA-A*23:01; [5]): 18300 nM
Kd (HLA-A*30:02; [5]): ≥ 96800 nM

ALSPPLLLL
Kd (HLA-A*02:01 [3]; source organism: Escherichia coli E22): 157 nM

EFLTRNPAW
Kd (HLA-A*24:02; [5]): ≥ 84500 nM
Kd (HLA-A*26:01; [5]): ≥ 69000 nM
Kd (HLA-A*01:01; [5]): ≥ 78100 nM
Kd (HLA-A*29:02; [5]): ≥ 45200 nM
Kd (HLA-A*23:01; [5]): ≥ 84500 nM
Kd (HLA-A*30:02; [5]): ≥ 100000 nM

LVAEMDGIQY
Kd (HLA-A*24:02; [5]): ≥ 70300 nM
Kd (HLA-A*26:01; [5]): 346 nM
Kd (HLA-A*01:01; [5]): 246 nM
Kd (HLA-A*29:02; [5]): 103 nM
Kd (HLA-A*23:01; [5]): ≥ 70000 nM
Kd (HLA-A*30:02; [5]): 102 nM

RLKGVTCRLF
Kd (HLA-A*24:02; [14]): 719 nM
Kd (HLA-A*29:02; [14]): 395 nM
Kd (HLA-A*23:01; [14]): 98.3 nM

LQFIVFLLL
Kd (HLA-A*24:02; [12]): ≥ 77500 nM
Kd (HLA-A*29:02; [12]): 4670 nM
Kd (HLA-A*23:01; [12]): 11300 nM

GYVVSNFEGV
Kd (HLA-A*24:02; [15]): ≥ 70300 nM
Kd (HLA-A*26:01; [15]): ≥ 69700 nM
Kd (HLA-A*01:01; [15]): ≥ 70400 nM
Kd (HLA-A*29:02; [15]): ≥ 70800 nM
Kd (HLA-A*23:01; [15]): ≥ 70000 nM
Kd (HLA-A*30:02; [15]): ≥ 69700 nM

LFADINGKL
Kd (HLA-A*24:02; [5]): 722 nM
Kd (HLA-A*26:01; [5]): ≥ 41700 nM
Kd (HLA-A*01:01; [5]): ≥ 78100 nM
Kd (HLA-A*29:02; [5]): 470 nM
Kd (HLA-A*23:01; [5]): 1300 nM
Kd (HLA-A*30:02; [5]): 4340 nM

AMISLAKKI
Kd (HLA-A*02:01 [3]; source organism: Vaccinia virus WR 65-16): 903 nM

YFESYVRPFV
Kd (HLA-A*24:02; [13]): 12800 nM
Kd (HLA-A*26:01; [13]): ≥ 46100 nM
Kd (HLA-A*01:01; [13]): ≥ 70400 nM
Kd (HLA-A*29:02; [13]): 3940 nM
Kd (HLA-A*23:01; [13]): 1890 nM
Kd (HLA-A*30:02; [13]): 4250 nM

QLLEAVYGN
IC50 (HLA-A*02:01 [2]; [7]): 21600 nM

YKTWAYHGSY
Kd (HLA-A*30:02; [4]): 4220 nM

ILFPDDVQEL
Kd (HLA-A*02:01 [3]; source organism: Vaccinia virus WR): 1.1 nM

AGPISQHNY
Kd (HLA-A*30:02; [8]): ≥ 76900 nM

SWFITQRNFF
Kd (HLA-A*24:02; [5]): 0.035 nM
Kd (HLA-A*26:01; [5]): 12500 nM
Kd (HLA-A*01:01; [5]): 828 nM
Kd (HLA-A*29:02; [5]): 53.2 nM
Kd (HLA-A*23:01; [5]): 0.0458 nM
Kd (HLA-A*30:02; [5]): 1030 nM

RWTQSLRRGL
Kd (HLA-A*24:02; [16]): ≥ 70300 nM
Kd (HLA-A*29:02; [16]): 1280 nM
Kd (HLA-A*23:01; [16]): 5300 nM

TSETFSMGLL
Kd (HLA-A*01:01; [6]): 242 nM
